Measured values: patent US20070105152

Legend:
[1] = target: T1, AY(AcK)EV
T1 chain: AYKEV

[2] = target: T2, AcGG(AcK)AP
T2 chain: GGKAP

[3] = target: T3, AcGG(AcK)APR
T3 chain: GGKAPR

[4] = target: T4, AcGG(AcK)APRK
T4 chain: GGKAPRK

[5] = target: T5, AcGG(AcK)APRKQ
T5 chain: GGKAPRKQ

[6] = target: T6, AcKSTGG(AcK)AP
T6 chain: KSTGGKAP

[7] = target: T7, AcSTGG(AcK)APR
T7 chain: STGGKAPR

[8] = target: T8, AcSTGG(AcK)AP
T8 chain: STGGKAP

[9] = target: T9, AcTGG(AcK)APRK
T9 chain: TGGKAPRK

[10] = target: T10, AcTGG(AcK)APR
T10 chain: TGGKAPR

[11] = target: T11, AcTGG(AcK)AP
T11 chain: TGGKAP

[12] = target: T12, Ala-Val-AcLys-Phe-Nle (SIRT1 library hit, on bead)
T12 chain: AVKFMXXRM

[13] = target: T13, Asn-His-AcLys-Ile-Ile (SIRT1 library hit, on bead)
T13 chain: NHKIIXXRM

[14] = target: T14, Asn-His-AcLys-Leu-Leu (SIRT1 library hit, on bead)
T14 chain: NHKLLXXRM

[15] = target: T15, Asp-Ser-AcLys-Gly-Ala (SIRT1 library hit, on bead)
T15 chain: DSKGAXXRM

[16] = target: T16, Asp-Val-AcLys-Nle-His (SIRT1 library hit, on bead)
T16 chain: DVKMHXXRM

[17] = target: T17, EL(AcK)AS
T17 chain: ELKAS

[18] = target: T18, Gln-Pro-AcLys-Gln-Ile (SIRT1 library hit, on bead)
T18 chain: QPKQIXXRM

[19] = target: T19, Gly-Thr-AcLys-Thr-Gly (SIRT1 library hit, on bead)
T19 chain: GTKTGXXRM

[20] = target: T20, Gly-Tyr-AcLys-Pro-Thr (SIRT1 library hit, on bead)
T20 chain: GYKPTXXRM

[21] = target: T21, HK(AcK)LM
T21 chain: HKKLM

[22] = target: T22, His-Me2Arg-AcLys-Nle-Pro (SIRT1 library hit, on bead)
T22 chain: HRKMPXXRM

[23] = target: T23, His-Trp-AcLys-Thr-His (SIRT1 library hit, on bead)
T23 chain: HWKTHXXRM

[24] = target: T24, Ile-Phe-AcLys-Thr-Phe (SIRT1 library hit, on bead)
T24 chain: IFKTFXXRM

[25] = target: T25, Ile-Tyr-AcLys-Asn-Asp (SIRT1 library hit, on bead)
T25 chain: IYKNDXXRM

[26] = target: T26, LNle(AcK)VG
T26 chain: LLKVG

[27] = target: T27, Leu-Asn-AcLys-Asp-Gln (SIRT1 library hit, on bead)
T27 chain: LNKDQXXRM

[28] = target: T28, Me2Arg-Ala-AcLys-Nle-Asp (SIRT1 library hit, on bead)
T28 chain: RAKMDXXRM

[29] = target: T29, Me2Arg-Phe-AcLys-Pro-Glu (SIRT1 library hit, on bead)
T29 chain: RFKPEXXRM

[30] = target: T30, Me2Arg-Pro-AcLys-Gln-Phe (SIRT1 library hit, on bead)
T30 chain: RPKQFXXRM

[31] = target: T31, Me2Arg/Pro-Me2Arg/Pro-AcLys-Ser-Ile (SIRT1 library hit, on bead)
T31 chain: RPKSIXXRM

[32] = target: T32, Me2Arg/Trp-Me2Arg/Trp-AcLys-Ile-Thr (SIRT1 library hit, on bead)
T32 chain: RWKITXXRM

[33] = target: T33, Me2RP(AcK)QF
T33 chain: RPKQF

[34] = target: T34, Me2RP(AcK)SI
T34 chain: RPKSI

[35] = target: T35, NH(AcK)II
T35 chain: NHKII

[36] = target: T36, Nle-Nle-AcLys-Gln-Gln (SIRT1 library hit, on bead)
T36 chain: MMKQQXXRM

[37] = target: T37, Phe-Glu-AcLys-Tyr-Me2Arg (SIRT1 library hit, on bead)
T37 chain: FEKYRXXRM

[38] = target: T38, Pro-Gly-AcLys-Leu-Tyr (SIRT1 library hit, on bead)
T38 chain: PGKLYXXRM

[39] = target: T39, Pro-Ile-AcLys-Glu-Gln (SIRT1 library hit, on bead)
T39 chain: PIKEQXXRM

[40] = target: T40, Pro/Trp-Pro/Trp-AcLys-Ile-Thr (SIRT1 library hit, on bead)
T40 chain: WPKITXXRM

[41] = target: T41, QNle(AcK)GF
T41 chain: QLKGF

[42] = target: T42, QP(AcK)QI
T42 chain: QPKQI

[43] = target: T43, Ser-Asp-AcLys-Tyr-His (SIRT1 library hit, on bead)
T43 chain: SDKYHXXRM

[44] = target: T44, Ser-Tyr-AcLys-Gln-Trp (SIRT1 library hit, on bead)
T44 chain: SYKQWXXRM

[45] = target: T45, Thr-Glu-AcLys-Gln-Glu (SIRT1 library hit, on bead)
T45 chain: TEKQEXXRM

[46] = target: T46, Thr-Pro-AcLys-Asn-Ala (SIRT1 library hit, on bead)
T46 chain: TPKNAXXRM

[47] = target: T47, Trp-Gly-AcLys-Ser-Pro (SIRT1 library hit, on bead)
T47 chain: WGKSPXXRM

[48] = target: T48, Trp-His-AcLys-Phe-Gln (SIRT1 library hit, on bead) (not fully specified)
T48 chain: WHKFQXXRM

[49] = target: T49, Trp-His-AcLys-Phe-Glu (SIRT1 library hit, on bead) (not fully specified)
T49 chain: WHKFEXXRM

[50] = target: T50, Trp-Pro-AcLys-Trp-Gln (SIRT1 library hit, on bead) (not fully specified)
T50 chain: WPKWQXXRM

[51] = target: T51, Trp-Trp-AcLys-His-Gly (SIRT1 library hit, on bead) (not fully specified)
T51 chain: WWKHGXXRM

[52] = target: T52, VQ(AcK)II
T52 chain: VQKII

[53] = target: T53, Val-Gln-AcLys-Ile-Ile (SIRT1 library hit, on bead) (not fully specified)
T53 chain: VQKIIXXRM

[54] = target: T54, WH(AcK)FQ
T54 chain: WHKFQ

[55] = target: T55, WH(AcK)QQ
T55 chain: WHKQQ

[56] = target: T56, WP(AcK)QQ
T56 chain: WPKQQ

B1: human NAD+-dependent deacetylase SIRT1 (protein)
chain: MADEAALALQPGGSPSAAGADREAASSPAGEPLRKRPRRDGPGLERSPGEPGGAAPEREVPAAARGCPGAAAAALWREAEAEAAAAGGEQEAQATAAAGEGDNGPGLQGPSREPPLADNLYDEDDDDEGEEEEEAAAAAIGYRDNLLFGDEIITNGFHSCESDEEDRASHASSSDWTPRPRIGPYTFVQQHLMIGTDPRTILKDLLPETIPPPELDDMTLWQIVINILSEPPKRKKRKDINTIEDAVKLLQECKKIIVLTGAGVSVSCGIPDFRSRDGIYARLAVDFPDLPDPQAMFDIEYFRKDPRPFFKFAKEIYPGQFQPSLCHKFIALSDKEGKLLRNYTQNIDTLEQVAGIQRIIQCHGSFATASCLICKYKVDCEAVRGDIFNQVVPRCPRCPADEPLAIMKPEIVFFGENLPEQFHRAMKYDKDEVDLLIVIGSSLKVRPVALIPSSIPHEVPQILINREPLPHLHFDVELLGDCDVIINELCHRLGGEYAKLCCNPVKLSEITEKPPRTQKELAYLSELPPTPLHVSEDSSSPERTSPPDSSVIVTLLDQAAKSNDDLDVSESKGCMEEKPQEVQTSRNVESIAEQMENPDLKNVGSSTGEKNERTSVAGTVRKCWPNRVAKEQISRRLDGNQYLFLPPNRYIFHGAEVYSDSEDDVLSSSSCGSNSDSGTCQSPSLEEPMEDESEIEEFYNGLEDEPDVPERAGGAGFGTDGDDQEAINEAISVKQEVTDMNYPSNKS
kcat/Km [1]: 5320 M⁻¹ s⁻¹ | Relative kcat/Km (relative to AcTGG(AcK)APRK = 1) [2]: 1.72 | Relative kcat/Km (relative to AcTGG(AcK)APRK = 1) [3]: 0.68 | Relative kcat/Km (relative to AcTGG(AcK)APRK = 1) [4]: 1.01 | Relative kcat/Km (relative to AcTGG(AcK)APRK = 1) [5]: 0.8 | Relative kcat/Km (relative to AcTGG(AcK)APRK = 1) [6]: 0.71 | Relative kcat/Km (relative to AcTGG(AcK)APRK = 1) [7]: 0.67 | Relative kcat/Km (relative to AcTGG(AcK)APRK = 1) [8]: 1.61 | Relative kcat/Km (relative to AcTGG(AcK)APRK = 1) [9]: 1 | Relative kcat/Km (relative to AcTGG(AcK)APRK = 1) [10]: 0.64 | Relative kcat/Km (relative to AcTGG(AcK)APRK = 1) [11]: 0.54 | on-bead deacetylation, biotin and streptavidin quantum dot fluorescence, among the 45 brightest beads [12]: hits from the SIRT1 combinatorial library screen | on-bead deacetylation, biotin and streptavidin quantum dot fluorescence, among the 45 brightest beads [13]: hits from the SIRT1 combinatorial library screen | on-bead deacetylation, biotin and streptavidin quantum dot fluorescence, among the 45 brightest beads [14]: hits from the SIRT1 combinatorial library screen | on-bead deacetylation, biotin and streptavidin quantum dot fluorescence, among the 45 brightest beads [15]: hits from the SIRT1 combinatorial library screen | on-bead deacetylation, biotin and streptavidin quantum dot fluorescence, among the 45 brightest beads [16]: hits from the SIRT1 combinatorial library screen | kcat/Km [17]: 0.00139 M⁻¹ s⁻¹ | on-bead deacetylation, biotin and streptavidin quantum dot fluorescence, among the 45 brightest beads [18]: hits from the SIRT1 combinatorial library screen | on-bead deacetylation, biotin and streptavidin quantum dot fluorescence, among the 45 brightest beads [19]: hits from the SIRT1 combinatorial library screen | on-bead deacetylation, biotin and streptavidin quantum dot fluorescence, among the 45 brightest beads [20]: hits from the SIRT1 combinatorial library screen | kcat/Km [21]: 3110 M⁻¹ s⁻¹ | on-bead deacetylation, biotin and streptavidin quantum dot fluorescence, among the 45 brightest beads [22]: hits from the SIRT1 combinatorial library screen | on-bead deacetylation, biotin and streptavidin quantum dot fluorescence, among the 45 brightest beads [23]: hits from the SIRT1 combinatorial library screen | on-bead deacetylation, biotin and streptavidin quantum dot fluorescence, among the 45 brightest beads [24]: hits from the SIRT1 combinatorial library screen | on-bead deacetylation, biotin and streptavidin quantum dot fluorescence, among the 45 brightest beads [25]: hits from the SIRT1 combinatorial library screen | kcat/Km [26]: 0.00161 M⁻¹ s⁻¹ | on-bead deacetylation, biotin and streptavidin quantum dot fluorescence, among the 45 brightest beads [27]: hits from the SIRT1 combinatorial library screen | on-bead deacetylation, biotin and streptavidin quantum dot fluorescence, among the 45 brightest beads [28]: hits from the SIRT1 combinatorial library screen | on-bead deacetylation, biotin and streptavidin quantum dot fluorescence, among the 45 brightest beads [29]: hits from the SIRT1 combinatorial library screen | on-bead deacetylation, biotin and streptavidin quantum dot fluorescence, among the 45 brightest beads [30]: hits from the SIRT1 combinatorial library screen | on-bead deacetylation, biotin and streptavidin quantum dot fluorescence, among the 45 brightest beads [31]: hits from the SIRT1 combinatorial library screen | on-bead deacetylation, biotin and streptavidin quantum dot fluorescence, among the 45 brightest beads [32]: hits from the SIRT1 combinatorial library screen | kcat/Km [33]: 0.0147 M⁻¹ s⁻¹ | kcat/Km [34]: 8360 M⁻¹ s⁻¹ | kcat/Km [35]: 3630 M⁻¹ s⁻¹ | on-bead deacetylation, biotin and streptavidin quantum dot fluorescence, among the 45 brightest beads [36]: hits from the SIRT1 combinatorial library screen | on-bead deacetylation, biotin and streptavidin quantum dot fluorescence, among the 45 brightest beads [37]: hits from the SIRT1 combinatorial library screen | on-bead deacetylation, biotin and streptavidin quantum dot fluorescence, among the 45 brightest beads [38]: hits from the SIRT1 combinatorial library screen | on-bead deacetylation, biotin and streptavidin quantum dot fluorescence, among the 45 brightest beads [39]: hits from the SIRT1 combinatorial library screen | on-bead deacetylation, biotin and streptavidin quantum dot fluorescence, among the 45 brightest beads [40]: hits from the SIRT1 combinatorial library screen | kcat/Km [41]: 0.00237 M⁻¹ s⁻¹ | fold preference in catalytic activity over WP(AcK)QQ [42]: QP(AcK)QI is favored over WP(AcK)QQ by 18-fold | kcat/Km [42]: 0.0272 M⁻¹ s⁻¹ | on-bead deacetylation, biotin and streptavidin quantum dot fluorescence, among the 45 brightest beads [43]: hits from the SIRT1 combinatorial library screen | on-bead deacetylation, biotin and streptavidin quantum dot fluorescence, among the 45 brightest beads [44]: hits from the SIRT1 combinatorial library screen | on-bead deacetylation, biotin and streptavidin quantum dot fluorescence, among the 45 brightest beads [45]: hits from the SIRT1 combinatorial library screen | on-bead deacetylation, biotin and streptavidin quantum dot fluorescence, among the 45 brightest beads [46]: hits from the SIRT1 combinatorial library screen | on-bead deacetylation, biotin and streptavidin quantum dot fluorescence, among the 45 brightest beads [47]: hits from the SIRT1 combinatorial library screen | on-bead deacetylation, biotin and streptavidin quantum dot fluorescence, among the 45 brightest beads [48]: hits from the SIRT1 combinatorial library screen | on-bead deacetylation, biotin and streptavidin quantum dot fluorescence, among the 45 brightest beads [49]: hits from the SIRT1 combinatorial library screen | on-bead deacetylation, biotin and streptavidin quantum dot fluorescence, among the 45 brightest beads [50]: hits from the SIRT1 combinatorial library screen | on-bead deacetylation, biotin and streptavidin quantum dot fluorescence, among the 45 brightest beads [51]: hits from the SIRT1 combinatorial library screen | kcat/Km [52]: ≥ 2470 M⁻¹ s⁻¹ | on-bead deacetylation, biotin and streptavidin quantum dot fluorescence, among the 45 brightest beads [53]: hits from the SIRT1 combinatorial library screen | kcat/Km [54]: 3290 M⁻¹ s⁻¹ | fold difference in catalytic activity against WP(AcK)QQ [55]: 7 fold | kcat/Km [55]: 0.00723 M⁻¹ s⁻¹ | kcat/Km [56]: 0.00154 M⁻¹ s⁻¹
